{"source": "IntAct's records for PubMed 15585574", "molecular_target": "wasl_mouse Wasl (UniProt Q91YD9)", "sequence (Q91YD9 whole entry)": "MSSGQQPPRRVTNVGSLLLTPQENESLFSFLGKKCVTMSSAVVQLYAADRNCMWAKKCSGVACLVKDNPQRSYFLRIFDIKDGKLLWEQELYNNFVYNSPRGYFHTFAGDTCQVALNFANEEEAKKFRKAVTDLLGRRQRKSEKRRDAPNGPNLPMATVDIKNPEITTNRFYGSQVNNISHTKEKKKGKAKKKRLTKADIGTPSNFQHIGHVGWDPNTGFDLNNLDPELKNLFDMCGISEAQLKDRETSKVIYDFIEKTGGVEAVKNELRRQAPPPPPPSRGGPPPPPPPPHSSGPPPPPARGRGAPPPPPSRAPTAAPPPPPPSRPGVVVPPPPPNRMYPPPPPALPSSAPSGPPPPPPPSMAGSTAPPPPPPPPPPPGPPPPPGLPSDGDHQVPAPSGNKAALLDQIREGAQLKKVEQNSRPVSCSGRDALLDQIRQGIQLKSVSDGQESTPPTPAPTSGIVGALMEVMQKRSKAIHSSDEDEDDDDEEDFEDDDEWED", "data": [{"substance": "Src substrate cortactin (Mus musculus), Q60598 W525L", "values": [{"measurement": "effect of a mutation on the interaction", "value": "disrupting interaction"}]}]}
